Measurements taken from PMC6783867, “Synthesis and Characterization of Cry2Ab–AVM Bioconjugate: Enhanced Affinity to Binding Proteins and Insecticidal Activity” (Toxins, 2019).

Molecular target: T1, 10th and 11th cadherin repeat domains of the Plutella xylostella cadherin (PxCR10–11), GST-tagged (Plutella xylostella)
T1 construct: Plutella xylostella cadherin, 10th and 11th CR domains, residues 1258–1602 aa; also called truncated recombinant P. xylostella cadherin; source: Escherichia coli expression system, purified (GST-Sefinose prepacked gravity column)
Test: BLI; Octet Red 96; GST-tagged PxCR10–11 loaded onto anti-GST biosensors; toxin 38.5 to 576.9 nM in solution; 400 s association, 400 s dissociation; 10 mM GSH, 50 mM Tris, pH 8.0; 1:1 binding model
Conditions: both partners purified

B1: Bacillus thuringiensis insecticidal protein (Bt toxin) Cry2Ab30 (natural protein)
chain: MNSVLNSGRTTICDAYNVAAHDPFSFQHKSLDTVQKEWTEWKKNNHSLYLDPIVGTVASFLLKKVGSLVGKRILSELRNLIFPSGSTNLMQDILRETEKFLNQRLNTDTLARVNAELTGLQANVEEFNRQVDNFLNPNRNAVPLSITSSVNTMQQLFLNRLPQFQMQGYQLLLLPLFAQAANLHLSFIRDVILNADEWGISAATLRTYRDYLKNYTRDYSNYCINTYQSAFKGLNTRLHDMLEFRTYMFLNVFEYVSIWSLFKYQSLLVSSGANLYASGSGPQQTQSFTSQDWPFLYSLFQVNSNYVLNGFSGARLSNTFPNIVGLPGSTTTHALLAARVNYSGGISSGDIGASPFNQNFNCSTFLPPLLTPFVRSWLDSGSDREGVATVTNWQTESFETTLGLRSGAFTARGNSNYFPDYFIRNISGVPLVVRNEDLRRPLHYNEIRNIASPSGTPGGARAYMVSVHNRKNNIHAVHENGSMIHLAPNDYTGFTISPIHATQVNNQTRTFISEKFGNQGDSLRFEQNNTTARYTLRGNGNSYNLYLRVSSIGNSTIRVTINGRVYTATNVNTTTNNDGVNDNGARFSDINIGNVVASSNSDVPLDINVTLNSGTQFDLMNIMLVPTNISPLY
- Kd: 28.7 nM
